Molecular target: N-terminal DYKDDDK-tagged mouse Tim-3 (T-cell immunoglobulin mucin domain-3) with the VN-173 portion of the Venus fluorophore at the C terminus (Tim-3-VN) (UniProt Q8VIM0)
Assay: bimolecular fluorescence complementation (BiFC)
Conditions: HeLa CD4+ cells, fixed 24 h after transfection; BiFC intensity normalized to Nef expression (HA staining); 3 independent repeats, 30 cells total; parent: est. 1.1; read off a plot

Chain of UniProt Q8VIM0 (Q8VIM0 20-281): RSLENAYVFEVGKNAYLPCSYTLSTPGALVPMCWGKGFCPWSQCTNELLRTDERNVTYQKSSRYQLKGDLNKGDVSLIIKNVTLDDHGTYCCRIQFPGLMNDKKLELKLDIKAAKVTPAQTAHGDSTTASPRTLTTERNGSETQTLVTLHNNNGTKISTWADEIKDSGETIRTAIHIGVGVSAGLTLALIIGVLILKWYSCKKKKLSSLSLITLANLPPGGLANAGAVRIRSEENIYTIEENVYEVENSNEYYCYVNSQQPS

**Q.** “HIV-1 NL4-3 Nef fused to a C-terminal HA tag and the VC-155 portion of the Venus fluorophore (Nef-HA-VC) L164A; L165A” was tested. Which response did it give?
**A.** Its response is 0.42 BiFC/Nef IF.
